In patent publication US20130243722A1 (NEUMEDICINES, published 2013):

Molecular target: human IL-12 receptor on human CD14- PBMC (human, UniProt Q99665 24-862)
Test: cell-based or functional assay

Sequence of human IL-12 receptor on human CD14- PBMC (Q99665 24-862): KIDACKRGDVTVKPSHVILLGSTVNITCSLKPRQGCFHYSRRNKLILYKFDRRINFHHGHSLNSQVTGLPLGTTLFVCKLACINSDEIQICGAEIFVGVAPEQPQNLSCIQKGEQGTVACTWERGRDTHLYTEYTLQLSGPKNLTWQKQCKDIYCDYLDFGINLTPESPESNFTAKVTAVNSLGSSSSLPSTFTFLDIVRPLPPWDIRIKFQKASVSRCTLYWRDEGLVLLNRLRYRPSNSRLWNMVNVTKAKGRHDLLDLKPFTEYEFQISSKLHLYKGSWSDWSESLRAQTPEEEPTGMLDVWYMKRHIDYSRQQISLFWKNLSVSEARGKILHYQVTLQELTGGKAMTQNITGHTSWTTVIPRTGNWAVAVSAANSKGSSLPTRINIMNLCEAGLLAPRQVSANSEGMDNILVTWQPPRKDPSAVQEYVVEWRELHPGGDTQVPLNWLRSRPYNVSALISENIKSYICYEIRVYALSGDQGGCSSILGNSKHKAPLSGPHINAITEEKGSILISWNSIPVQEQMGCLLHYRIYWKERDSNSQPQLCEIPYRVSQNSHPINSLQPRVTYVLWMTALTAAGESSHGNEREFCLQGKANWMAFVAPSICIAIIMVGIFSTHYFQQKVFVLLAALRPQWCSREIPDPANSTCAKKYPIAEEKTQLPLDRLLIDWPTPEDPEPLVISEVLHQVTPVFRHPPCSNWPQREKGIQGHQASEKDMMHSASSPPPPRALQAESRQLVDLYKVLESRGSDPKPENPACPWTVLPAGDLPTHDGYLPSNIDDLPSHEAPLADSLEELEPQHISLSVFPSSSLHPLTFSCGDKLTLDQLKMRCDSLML

- EC50 for stimulating IFN-γ secretion from CD14- PBMC (ELISA, 16 hours): 2.51 pM
B1: recombinant human IL-12 (ligand)
chain 1: RNLPVATPDPGMFPCLHHSQNLLRAVSNMLQKARQTLEFYPCTSEEIDHEDITKDKTSTVEACLPLELTKNESCLNSRETSFITNGSCLASRKTSFMMALCLSSIYEDLKMYQVEFKTMNAKLLMDPKRQIFLDQNMLAVIDELMQALNFNSETVPQKSSLEEPDFYKTKIKLCILLHAFRIRAVTIDRVMSYLNAS
chain 2: IWELKKDVYVVELDWYPDAPGEMVVLTCDTPEEDGITWTLDQSSEVLGSGKTLTIQVKEFGDAGQYTCHKGGEVLSHSLLLLHKKEDGIWSTDILKDQKEPKNKTFLRCEAKNYSGRFTCWWLTTISTDLTFSVKSSRGSSDPQGVTCGAATLSAERVRGDNKEYEYSVECQEDSACPAAEESLPIEVMVDAVHKLKYENYTSSFFIRDIIKPDPPKNLQLKPLKNSRQVEVSWEYPDTWSTPHSYFSLTFCVQVQGKSKREKKDRVFTDKTSATVICRKNASISVRAQDRYYSSSWSEWASVPCS
